Test results as given in article PMC10321058.

Biological target: SARS-CoV-2 spike RBD protein (SARS-CoV-2, UniProt P0DTC2 319-541)
Assay: electrochemical aptasensor

B1: thiolated SARS-CoV-2 RBD aptamer (Song et al. 2020) (ssDNA)
DNA: TTTTTCCAGCCACCGACCTTGTGCTTTGGGAGTGCTGGTCCAAGGGCGTTAAGGACA
modifications: 5'-thiol, TCEP reduced, immobilized on SPCE/HA-LSCF
binding result: binds
